What was measured:
[1] = tested on: human pluripotent stem cell-induced neurons; assay: Endogenous Aβ40 in human pluripotent stem cell-induced neurons (lentivirus, ELISA); format: cell-based
Method: • a) Construction of lentivirus expression plasmids, lentivirus-GFP and lentivirus-ApoE CT, which can be specifically expressed in neurons. • b) The lentivirus vectors were cotransfected with coat protein vectors (PSPAX2 and PMD2G) in HEK 293T cell line. Cells were subcultured one day before transfection, and transfection was performed when the degree of cell adhesion reached 70%-80%. The transfection reagent was Polyjet (SignaGen). • c) 36-48 hours after the transfection, the cell culture was collected and filtered through a 0.22 μm filter membrane. • d) The filtered cell culture solution was ultracentrifuged. Centrifuged at 20000 rpm, 4° C. for 2 hours and 5 minutes. • e) After centrifugation, the supernatant was removed, and the precipitation of every three precipitates of 10 cm cell culture medium was resuspended with 50 μl of PBS. • f) The resuspended virus was subpackaged and stored in a −80° C. refrigerator for subsequent experiments.
(§1) 48 hours after transfection of HEK 293T cells and N2A cells, or 4.5 days after lentivirus infection of neurons, media and lysates were collected. Aβ40 and Aβ42 in the culture medium and cell lysates were detected by an Aβ ELISA kit as indicated in the protocol. (Invitrogen Technology; KHB3481 for human Aβ40, KHB3441 for human Aβ42 and KMB3481 for mouse Aβ40).

[2] = tested on: human APP and β-secretase co-expressed in HEK 293T cells; assay: HEK 293T cells co-expressing APP and β-secretase (BACE1): Aβ ELISA and β-CTF Western blot; format: cell-based
Method: The experiment was performed according to the standard procedure in the ELISA analysis kit of Invitrogen Company. • a) The target protein was expressed in HEK 293T cell line. Cells were subcultured one day before transfection, and transfection was performed when the degree of cell adhesion reached 70%-80%. The transfection reagent was lipofectamine2000 (ThermoFisher). • b) 4-6 hours post transfection, medium were replaced with fresh cell culture medium. • c) 36-48 hours post transfection, the cell culture medium was collected, and then the ELISA process was performed or the cell culture medium was frozen in a −80° C. refrigerator. • d) 50 μl of standard samples and experimental samples were added to each well of the 96-well plate. • e) 50 μl of human-derived Aβ40 or Aβ42 or mouse-derived Aβ40 detection antibody was added to each well of the 96-well plate. • f) The above samples were shaken gently and placed at room temperature for 3 hours. • g) The liquid in the well were removed, and the plate was washed 4 times with 1× wash buffer. • h) 100 μl of the buffer containing 1× anti-Rabbit IgG HRP was added. • i) The plate was shaken gently and placed at room temperature for […]. • j) The liquid in the well were removed, and the well was washed 4 times with 1× wash buffer. • k) 100 μl of Stabilized Chromogen was added to each well, and the plate was placed in the dark for 30 minutes at room temperature. • l) 100 μl of Stop Solution was added to each well. • m) The absorbance at 450 nm was measured with a microplate reader. 2.4 qRT-PCR
as §1
Data were analyzed by GraphPad Prism software (v6) using unpaired, paired, or one-sample t-tests. Aβ40 and Aβ42 levels were normalized to the corresponding GFP controls. α-CTF levels were normalized to FL-APP and corresponding GFP controls. All data are represented as mean±SEM. Statistical significance was defined as p<0.05. One, two, three and four stars (*) in the graph indicate p-values <0.05, <0.01, <0.001 and <0.0001, respectively.

B1: ApoE CT: C-terminal fragment of ApoE, positions 216-299 of SEQ ID NO: 12; SEQ ID NO: 33 (protein)
chain: ARMEEMGSRTRDRLDEVKEQVAEVRAKLEEQAQQIRLQAEAFQARLKSWFEPLVEDMQRQWAGLVEKVQAAVGTSAAPVPSDNH
With B1 as the molecule, how does the “reduction in Aβ40 production” value ([1]; hiPSC-induced neurons, lentiviral infection) read?
The value was “approximately 46%”.

What about the “endogenous Aβ40” value ([1]; human neurons from pluripotent stem cell line, lentivirus) of the same molecule?
The value was “also reduces endogenous Aβ40”.

And the “endogenous production of Aβ40” value ([1]; human pluripotent stem cell-induced neurons)?
The value was “about 54 % of controls”.

And the “Aβ40 in the presence of GI254023X” value ([2]; APP and BACE1, 1 μM GI254023X)?
Its value is “decrease Aβ40”.

What about the β-CTF levels ([2]; APP and BACE1, Western blot) of the same molecule?
Its β-CTF levels is “did not alter β-CTF levels”.

And the “production of Aβ40” value ([2]; APP and β-secretase co-expressed, ELISA, vs GFP control)?
Its value is “decreased Aβ40”.

And the “Aβ40 in cell lysates, decreased by” value ([2]; APP, BACE1)?
Its value is “about 42%”.

And the “Aβ40 secreted into the cell culture medium, reduced by” value ([2]; APP, BACE1)?
Its value is “about 75%”.

And the “Aβ42, reduced by” value ([2]; APP, BACE1)?
Its value is “about 74%”.

What about the “ratio of Aβ42/Aβ40” value ([2]; APP, BACE1) of the same molecule?
Its value is “remains unchanged”.

What about the Aβ40 ([2]; ELISA) of the same molecule?
Its Aβ40 is 25 % of GFP control.

What about the Aβ42 ([2]; ELISA) of the same molecule?
Its Aβ42 is “about 26 % of GFP control”.

From patent US20250108100A1, “C-TERMINAL FRAGMENT OF APOLIPOPROTEIN E AND APPLICATION THEREOF IN INHIBITING y-SECRETASE ACTIVITY” (SYNPHATEC (SHANGHAI) BIOPHARMACEUTICAL TECHNOLOGY CO., LTD., priority 2022, published 2025)
